The supplement of paper PMC9170038

System: K4 kissing-loop RNA reporter
Assay: apparent KD of K4 kissing-loop reporter; higher = weaker reporter binding
Conditions: Eterna round: R107
Method: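 RNA-MaP round R107: designed RNA switches with theophylline, tryptophan, arginine or FMN aptamers are transcribed on-chip within common flanks. They are titrated with a labelled K4 kissing-loop RNA reporter in RNA-MaP buffer (100 mM Tris pH 7.5, 80 mM KCl, 4 mM MgCl2), without ligand or with the indicated ligand. Median apparent KD per design.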

[1] = input ligand: theophylline 20 uM
[2] = input ligand: tryptophan 2.4 mM
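Note: bound reporter read as fluorescence of individual clusters on recovered sequencing chips by microscopy, with normalized cluster intensities fitted with a binding model.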

| Sequence | apparent KD of K4 kissing-loop reporter (input ligand: FMN 200 uM) | apparent KD of K4 kissing-loop reporter (input ligand: arginine 13.2 mM) | apparent KD of K4 kissing-loop reporter (input ligand: none) | apparent KD of K4 kissing-loop reporter [1] | apparent KD of K4 kissing-loop reporter [2] |
| --- | --- | --- | --- | --- | --- |
| GCCGUAGAUCGAAGGAGCGUGUCCAAACCUCAUUCAUGUACACACGAGUGAUGUUCGUGUACACAGGUAGGUCGCGAUCUACGGC [#04 K4 Arginine B Exclusion] | 344 nM | 281 nM | 331 nM | 294 nM | 310 nM |
| GCCGUAGAUGGAAGGAGCGUGCCUUUCAGUUAUAGUGAUGUUAUAACCGAGGAACGGUUGGCACAGGUAGGUCGCCAUCUACGGC | 178 nM | 90.2 nM | 109 nM | 112 nM | 121 nM |
| GCCGUAGAUUGAAGGAGCGCUAGUAGUGAUGUUGCUUGCACUUCUUGUGUAAGAAGAACCUAGCAGGUAGGUCGCAAUCUACGGC | 700 nM | 270 nM | 728 nM | 703 nM | 499 nM |
| GCCGUAGAUUGAAGGAGCGUGGAACUAUGGCUUGAACAGUGAUGUUGUUUAUCUAGGUAGCCGCAGGUAGGUCGCAAUCUACGGC | 263 nM | 250 nM | 270 nM | 239 nM | 229 nM |
| GCCGUAGUUGGAAGGAGCGUGAAUGGCCUCUAUCCAAAGUGAUGUUUUGUUGAAGACUGUUCACAGGUAGGUCGCCAACUACGGC [#09 K4 Arginine B Same State] | 145 nM | 130 nM | 133 nM | 134 nM | 132 nM |
| GCGAUUCAGUGAUGUUGGAAAUACAGGGAUACCAGCCGAGAAUAAGGCCCUUGGCAGCUUAAUAGGAAAGAACUAAGUAAGACGC [Theophylline A Same State; Euphoria Solution 2] | 574 nM | 569 nM | 877 nM | 616 nM | 402 nM |
| GCGCGGCUCAGUGAUGUUGAGCCUCGGAAACGAGGACCGGUACGGCCGCCACUCGUCCGCGCAGCUGAGGCAAAAGCCUCGGCUA [Omei KL Tryp A SS B v2] | 468 nM | 310 nM | 484 nM | 480 nM | 273 nM |
| GCGCGUCAUGUCAGCGGUGACACUGUCGAUACCAGCGCCGGAAGGCGCCCUUGGCAGCGACGUGCUGGAGUGAUGUUCCAGCGUG [#2 Exclusion - Theophylline A Attempt #26 (HarryS)] | 197 nM | 158 nM | 178 nM | 206 nM | 157 nM |
| GCGCGUCAUGUCAGCGGUGACUUUGUCGAUACCAGCGCCGCAAGGCGCCCUUGGCAGCGACGCGCUGGAGUGAUGUUCCAGCGUG [#2 Exclusion - Theophylline A Attempt #12 (HarryS)] | 135 nM | 126 nM | 134 nM | 154 nM | 126 nM |
| GCGGGCCCUGGAGGAUAUGAGUCGAGUGAUGUUCGGCGGUCCAUGCCGAUGCGGCGUUAUGCCCUUUUAGAAGGCCAGGGUCCGC [#2 Exclusion - FMN B Attempt #8 (HarryS)] | 543 nM | 234 nM | 283 nM | 302 nM | 289 nM |
| GCUAAGGAGUGAUGUUCCAAGUGAUGUUAACGAGGACCGGUACGGCCGCCACUCGAUACGGCCGGAAAGUAAGAUAAACUACAGC [Same State - Tryptophan A (Freestyle 5)] | 98.6 nM | 72.6 nM | 93.2 nM | 89.3 nM | 82.8 nM |
| GCUAUGGUAGGAAGGAGCGCGGACGGUAUUUGUCGAGUGAUGUUCGAUUCUUUAAUUUGAACGCAGGUAGGUCGCCUACUAUAGC [Arginine B K4 30] | 214 nM | 183 nM | 226 nM | 258 nM | 221 nM |
| GCUAUGGUAGGAAGGAGCGCUUACUCGGUAAUAAGAGUGAUGUUCGAUACCGAGUAUUUAUAGCAGGUAGGUCGCCUACUAUAGC [Arginine B K4 5] | 238 nM | 209 nM | 195 nM | 253 nM | 227 nM |
| GCUGAGGAGUGAUGUUCCAAGUGAUGUUAACGAGGACCGGUACGGCCGCCACUCGAUACGGCCGGACCGUAAGAUAAACUACAGC [Same State - Tryptophan A (Freestyle 7)] | 316 nM | 281 nM | 288 nM | 409 nM | 315 nM |
| GGAAAUUGAUCAACGCAGUGAUGUUGCGAUACCAGACACAAAGCCGUCCCUUGGCAGCGCGGGACAUUAAUGGAUCUAUGGGUUC [theeternabot_exclusion_KL_Theo_A_26] | 68.5 nM | 113 nM | 68.2 nM | 119 nM | 66.8 nM |
| GGACCACCAGUGAUGUUGGAGAUAAACUCCAAGGAUAUGACGAAAGUCAGAAGGUGGUAAUAAGACGUCAAAGACGUCAGGUCCA [FmnA 20 #SwitchBubble #K4Early] | 372 nM | 116 nM | 187 nM | 209 nM | 178 nM |
| GGAGUUACCUGGGAUACCAGUCGGAGUCCCAGAGCUCAGAGUGAUGUUCUGGGAUGUUUCGGCCCUUGGCAGCUCUGGGACUCCC [#2 Exclusion - Theophylline B Attempt #12 (HarryS)] | 535 nM | 509 nM | 637 nM | 599 nM | 466 nM |
| GGAGUUACCUGGGAUACCAGUCGGAGUCUCAGAGCUCGGAGUGAUGUUCUGGGAUGUUUCGGCCCUUGGCAGCUCUGGGACUCCA [#2 Exclusion - Theophylline B Attempt #16 (HarryS)] | 924 nM | 627 nM | 863 nM | 843 nM | 707 nM |
| GGAUAGGACAGAGGAUAUGGACAGUCUACAAAGUAGGCUGAAAAUCCUUGAAUGGAAGUGAUGUUUCCAGAAGGCUGUCCUAUCG [FmnBX 20 - #SwitchBubble #StaticStem #Palindromic] | 558 nM | 145 nM | 165 nM | 164 nM | 150 nM |
| GGAUAGGACAGAGGAUAUGGUAGCUAGGCAAGAAUAACUUGUCUAGCAUCCAUGAGGAGUGAUGUUCCAGAAGGCUGUCCUAUCG [FmnBX 5 - #SwitchBubble #StaticStem] | 235 nM | 145 nM | 211 nM | 150 nM | 165 nM |
| GGAUAGGAGAGAGGAUAUGGGCUAGGCAAGAAUAACUUGUCUAGCAAAUCCAUGAGGAGUGAUGUUCCAGAAGGCUCUCCUAUCG [FmnBX 1 G9+C77] | 996 nM | 148 nM | 153 nM | 143 nM | 139 nM |

| Sequence | apparent KD of K4 kissing-loop reporter (input ligand: FMN 200 uM) | apparent KD of K4 kissing-loop reporter (input ligand: arginine 13.2 mM) | apparent KD of K4 kissing-loop reporter (input ligand: none) | apparent KD of K4 kissing-loop reporter [1] | apparent KD of K4 kissing-loop reporter [2] |
| --- | --- | --- | --- | --- | --- |
| GGAUAGGAUAGAGGAUAUGGACUAGGCAAGAAUAACUUGUCUAGUAAAUCCAUGAGGAGUGAUGUUCCAGAAGGCUGUCCUAUCG [MatMod 3 - Jieux - Exclusion - FMN B] | 514 nM | 200 nM | 226 nM | 224 nM | 185 nM |
| GGAUAGGAUAGAGGAUAUGGUUUAUGCAGAAAUAACUUAUUGUGUAAAUCCAUAGGGAGUGAUGUUCCAGAAGGCUGUCCUAUCG [MatMod 15 - Jieux - Exclusion - FMN B] | 316 nM | 187 nM | 209 nM | 241 nM | 180 nM |
| GGAUCCACCAGUGAUGUUGGAGAAAACUCCAAGGAUAUGACGAAAGUCAGAAGGUGGUAGACUGGGCAAAGUCCGGUCGGAUCCA [FmnA10 G66] | 3150 nM | 68.5 nM | 144 nM | 49.9 nM | 355 nM |
| GGAUCCACCAGUGAUGUUGGAGAAAACUCCGAGGAUAUGACGAAAGUCAGAAGGUGGUAGACUGGACAAAGUCCGGUCGGAUCCA [FmnA 24 #SwitchBubble #K4Early] | 790 nM | 83.3 nM | 288 nM | 162 nM | 101 nM |
| GGCACGGGCUCGGCCGCCACUCCCGCGGGUCGAAAGGUCCGCUACUGAGUGAUGUUCGGUUGGAGGAGGACCGGGAGCCCGUGCC [#2 Exclusion - Tryptophan B Attempt #23 (HarryS)] | 130 nM | 91.6 nM | 108 nM | 99.9 nM | 98.4 nM |
| GGCACUUUUGGUAGGAACCAUCUACCUCUAUAGGAUAUGCCGAAAGGCAGAAGGAUAGACCUACAGAGUGAUGUUCUGCGUGCCU | 573 nM | 150 nM | 330 nM | 203 nM | 211 nM |
| GGCAGUGAUGUUGCCUAAGCAACGCAUGCGGAGGAUAUUCGUUCGGGAAGAAGGCCGCAGCGUUCUCUCGCGAGUGAUGUUCGCA [Same State FMN A GF 22] | 158 nM | 160 nM | 173 nM | 166 nM | 147 nM |
| GGCAUCCAUGGACCUAGUGAUGUUAGGUACCGAGGACCGGUACGGCCGCCACUCGGCCAUGGAUGCCGCAAUCGGAAACGAUUGC | 406 nM | 243 nM | 408 nM | 460 nM | 345 nM |
| GGCCAAAGAGAGUGAUGUUCUCAAUAUGAAGGAGCGCCCGAAAGGGCAGGUAGGUCGCAUAACGGCCACCUACGAAAAGUAGGAA [#SwitchBubble 4 #K4Early] | 91.3 nM | 96.6 nM | 94.5 nM | 109 nM | 96.5 nM |
| GGCCACGGGCGAGGAUAUGGGCAUGAUUCAUCCUGGAGUGAUGUUCCAGGUCCUACGUUUCUAGCACCAGAAGGCGUUUGUUGCU [Enistein] | 131 nM | 196 nM | 215 nM | 180 nM | 165 nM |
| GGCGGCCGCGCGCAAGCGCGGCCGGCCGAUACCAGCGCGACGGCGCGCCCUUGGCAGCGGCGCCGAGUGAUGUUCGGCCUGCCGU [#2 Same State - Theophylline A Attempt #15 (HarryS)] | 151 nM | 81.1 nM | 146 nM | 94.2 nM | 96.4 nM |
| GGGAAUUACGGAGGAUAUGCACUGAGGAGGAGAAUAUAGUGAUGUUAUAUAAGAGGAAGGAGAAGAGUAGAAGGCCGUGGAAAGG [SSFMNB.D] | 226 nM | 161 nM | 203 nM | 217 nM | 141 nM |
| GGGAGUAGUGCGGCCGCCACUGAGAAAGAAGAAGAAUAUAGUGAUGUUAUAUAGGAAUUAAAGAACAGGACCGGGCAUUAGAUUU [SSTRyptB.O] | 210 nM | 208 nM | 219 nM | 163 nM | 143 nM |
| GGGUGGCAGGCGGCCGCCACUCUGAGCAGCCAGUGAGUGAUGUUCGUGGCGGAAGAAUGUUCGUAGAGGACCGGGUUUGUUGUUC [Same State Tryptophan B GF 22] | 472 nM | 245 nM | 297 nM | 432 nM | 337 nM |
| GGUAGCAUGGCGGCCGCCACUCUUCAUUAGUGAUGUUAAUGCCGAGUGCGCUAACUCCAACUGGAGAGGACCGGGCCAUGCUACC | 182 nM | 122 nM | 288 nM | 440 nM | 76 nM |
| GGUAGCAUGGCGGCCGCCACUCUUCAUUAGUGAUGUUAAUGCCGAGUGCGCUAACUCCUACGGGAGAGGACCGGGCCAUGCUACC | 1220 nM | 4.43 nM | 25.8 nM | 919 nM | 14.6 nM |
| GGUAGCAUGGCGGCCGCCACUUCAAGUGGAGUGAUGUUCCACGGCAUCGCGAAAGCGAUGCCUGGAAGGACCGGGCCAUGCUACC | 738 nM | 739 nM | 720 nM | 761 nM | 284 nM |
| GGUAGCAUGGCGGCCGCCACUUCAUAUGGAGUGAUGUUCCAGCAUCUUAUAAGACUGAGGUGAGGAAGGACCGGGCCAUGCUACC | 635 nM | 561 nM | 577 nM | 615 nM | 189 nM |
| GGUAUGGAAGCAACAUCACAAGCCGUACCACGAGGACCGGUACGGCCGCCACUCGAUAACUUGCAGUGAUGUUGCAAGUAAGAAU [(T)''-(K)'-(T)'-(T1)-(T2)-(K1)-(K2)_Design6] | 147 nM | 80.5 nM | 133 nM | 117 nM | 68.6 nM |
| GGUGACAGCCAGGAGUGAUGUAUAGAAUAGCGAGGACCGGUACGGCCGCCACUCGUGAAGAGAAAGGAGUGAUGUUCCGUAAUGG [Kazoo C2] | 224 nM | 178 nM | 193 nM | 308 nM | 57 nM |
| GGUGCCGGGCAAGGAUAUUAGUCGAGUGAUGUUCGGCGGUCCAAGUCGUUGCGGCGUUAAACCCUUUGAGAAGGUGCCCGGUGCC [#2 Exclusion - FMN B Attempt #1 (HarryS)] | 198 nM | 144 nM | 193 nM | 195 nM | 163 nM |
